How the values were obtained:
α-Syn:nYFP = α-Syn:nYFP (UniProt P37840 1-140); experiment: split reporter (BiFC, NanoBiT); split-YFP; stable cell lines with α-Syn or tau fused to the N-terminal portion of YFP (bait), transfected with 250 ng prey plasmid with the C-terminal portion of YFP; fluorescence by flow cytometry at 48 hr and microscopy up to 72 hr; settings: partners not purified
tau:nYFP = target: T1, tau:nYFP (UniProt P10636-8 1-441); experiment: as above; settings: partners not purified
T1 construct: microtubule associated protein tau; Plasmids and their construction are in Supplementary file 2; also called nYFP-tau; tau fused to an N-terminal moiety of YFP
T1 sequence (P10636 other isoform, or with tags, fused parts or gaps): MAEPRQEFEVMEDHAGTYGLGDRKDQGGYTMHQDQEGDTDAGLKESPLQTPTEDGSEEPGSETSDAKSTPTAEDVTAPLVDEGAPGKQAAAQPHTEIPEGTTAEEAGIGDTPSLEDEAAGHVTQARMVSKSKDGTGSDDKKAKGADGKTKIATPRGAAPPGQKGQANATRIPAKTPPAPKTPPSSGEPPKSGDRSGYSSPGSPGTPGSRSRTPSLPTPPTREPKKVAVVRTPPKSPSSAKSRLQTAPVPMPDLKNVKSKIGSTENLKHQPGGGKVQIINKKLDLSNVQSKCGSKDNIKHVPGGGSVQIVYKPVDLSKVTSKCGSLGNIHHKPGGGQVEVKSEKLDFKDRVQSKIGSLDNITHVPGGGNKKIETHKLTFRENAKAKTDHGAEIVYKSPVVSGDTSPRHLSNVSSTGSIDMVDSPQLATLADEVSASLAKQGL

fold lower BiFC signal than with tau as prey (α-Syn:nYFP): ~8 fold
fold lower BiFC signal than with tau as prey (tau:nYFP): ~8 fold
B1: TRIM28:cYFP (natural protein, human, UniProt Q13263 1-835, looked up)
chain: MAASAAAASAAAASAASGSPGPGEGSAGGEKRSTAPSAAASASASAAASSPAGGGAEALELLEHCGVCRERLRPEREPRLLPCLHSACSACLGPAAPAAANSSGDGGAAGDGTVVDCPVCKQQCFSKDIVENYFMRDSGSKAATDAQDANQCCTSCEDNAPATSYCVECSEPLCETCVEAHQRVKYTKDHTVRSTGPAKSRDGERTVYCNVHKHEPLVLFCESCDTLTCRDCQLNAHKDHQYQFLEDAVRNQRKLLASLVKRLGDKHATLQKSTKEVRSSIRQVSDVQKRVQVDVKMAILQIMKELNKRGRVLVNDAQKVTEGQQERLERQHWTMTKIQKHQEHILRFASWALESDNNTALLLSKKLIYFQLHRALKMIVDPVEPHGEMKFQWDLNAWTKSAEAFGKIVAERPGTNSTGPAPMAPPRAPGPLSKQGSGSSQPMEVQEGYGFGSGDDPYSSAEPHVSGVKRSRSGEGEVSGLMRKVPRVSLERLDLDLTADSQPPVFKVFPGSTTEDYNLIVIERGAAAAATGQPGTAPAGTPGAPPLAGMAIVKEEETEAAIGAPPTATEGPETKPVLMALAEGPGAEGPRLASPSGSTSSGLEVVAPEGTSAPGGGPGTLDDSATICRVCQKPGDLVMCNQCEFCFHLDCHLPALQDVPGEEWSCSLCHVLPDLKEEDGSLSLDGADSTGVVAKLSPANQRKCERVLLALFCHEPCRPLHQLATDSTFSLDQPGGTLDLTLIRARLQEKLSPPYSSPQEFAQDVGRMFKQFNKLTEDKADVQSIIGLQRFFETRMNEAFGDTKFSAVLVEPPPMSLPGAGLSSQELSGGPGDGP
notes: Tripartite motif-containing 28 (TRIM28); Plasmids and their construction are in Supplementary file 2; also called TRIM28 fused to a C-terminal moiety of YFP; Prey

Reference: paper PMC5104516, “TRIM28 regulates the nuclear accumulation and toxicity of both alpha-synuclein and tau” (eLife, 2016)
